Data as given in PMC6053597, “Coupling of polymerase and carrier lipid phosphatase prevents product inhibition in peptidoglycan synthesis” (The Cell Surface, 2018).

How the values were obtained:
[1] = target: T1, PBP1B (Penicillin-binding protein 1B), untagged (E. coli, UniProt P02919 58-804); assay: cell-based or functional assay
T1 sequence: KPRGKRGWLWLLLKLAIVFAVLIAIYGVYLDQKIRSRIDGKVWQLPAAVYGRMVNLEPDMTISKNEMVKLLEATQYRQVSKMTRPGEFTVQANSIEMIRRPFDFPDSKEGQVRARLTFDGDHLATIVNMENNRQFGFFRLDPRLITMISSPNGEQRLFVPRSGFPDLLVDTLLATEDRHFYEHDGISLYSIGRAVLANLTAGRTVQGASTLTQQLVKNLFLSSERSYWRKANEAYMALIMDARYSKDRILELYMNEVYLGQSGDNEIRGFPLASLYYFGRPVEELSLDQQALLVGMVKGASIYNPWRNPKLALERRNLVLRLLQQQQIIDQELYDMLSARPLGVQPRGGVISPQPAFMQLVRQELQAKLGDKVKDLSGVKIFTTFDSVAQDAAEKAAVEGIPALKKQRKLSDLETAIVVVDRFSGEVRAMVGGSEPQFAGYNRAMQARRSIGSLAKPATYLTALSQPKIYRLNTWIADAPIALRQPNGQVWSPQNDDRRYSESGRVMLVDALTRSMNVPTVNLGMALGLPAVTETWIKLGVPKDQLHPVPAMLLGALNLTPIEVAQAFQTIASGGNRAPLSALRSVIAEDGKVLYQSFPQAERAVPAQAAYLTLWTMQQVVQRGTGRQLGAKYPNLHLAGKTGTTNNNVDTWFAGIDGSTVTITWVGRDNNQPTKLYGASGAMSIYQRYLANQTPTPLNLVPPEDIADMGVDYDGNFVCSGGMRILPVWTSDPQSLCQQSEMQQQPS

[2] = target: T1, PBP1B (Penicillin-binding protein 1B), …; assay: SPR; PBP1A or PBP1B covalently immobilised via their TPase active site on a sensor chip with bound ampicillin; PgpB-ht injected at 0.125-2 μM in 10 mM Tris/maleate pH 7.5, 150 mM NaCl, 5 mM imidazole, 5 mM β-mercaptoethanol, 0.05% DDM; 25 °C, 75 μL/min; equilibrium response fitted to a 1:1 model; apparent KD; conditions: both partners purified

B1: PgpB-ht (C-terminal His6-tagged version of PgpB) (enzyme, E. coli)
chain: MRSIARRTAVGAALLLVMPVAVWISGWRWQPGEQSWLLKAAFWVTETVTQPWGVITHLILFGWFLWCLRFRIKAAFVLFAILAAAILVGQGVKSWIKDKVQEPRPFVIWLEKTHHIPVDEFYTLKRAERGNLVKEQLAEEKNIPQYLRSHWQKETGFAFPSGHTMFAASWALLAVGLLWPRRRTLTIAILLVWATGVMGSRLLLGMHWPRDLVVATLISWALVAVATWLAQRICGPLTPPAEENREIAQREQES
notes: PgpB, C55-PP pyrophosphatase (PAP2 family) of E. coli; amplified by PCR from genomic DNA of E. coli BW25113 and cloned into pET28a(+) (pET28a-pgpB); Purified according to Touzé et al., 2008a with modifications; also called oligohistidine tagged PgpB; source: E. coli C43(DE3), membrane fraction solubilised in DDM, purified (Ni-NTA); not shown: His6, C-terminal, kept
Q: With B1 as the binder, how does the “lipid II consumption by PBP1B in proteoliposomes of artificial lipids with PgpB at a 1:1 molar ratio, with LpoB(sol), TLC (PBP1B alone: less than 20%)” value [1] read?
A: 63%

Q: And the Kd [2]?
A: 1050 nM
